This test addresses glutathione reductase (Type III, Sigma).

The text below walks through data of US5731419.

In turn, “Bovine serum albumin (Pharmacia, DNase free 10 mg/ml) (from UniProt P02769)” yielded a remaining glutathione reductase activity after denaturation (percent of control) (scale: % of control activity) of 71.
As for “WCOR410 protein, expressed from pET22b and purified with the His*Bind buffer kit”, the remaining glutathione reductase activity after denaturation (percent of control) (% of control activity (-20° C., 1 µg/ml)) was 42.
On the same count and under the same terms, as for “Wcs120 protein (50 kDa protein), expressed in E. coli from pET11a and purified”, the figure is 40.
